Experiments:
Type in all cases: physicochemical
[1] = Sedimentation equilibrium ultracentrifugation (aggregation state); details: concentration range approximately 10 μM-40 μM
Method: Ultracentrifugation. Sedimentation equilibrium analysis of the wild type proteins GCN4-p1 and A1 and the corresponding artificial proteins containing the non-natural amino acids was performed using a Beckman XLI analytical ultracentrifuge, recording interference data and radial absorbance at 236 and 280 nm at the same time. […] The samples were centrifuged at 35000, 40000, 45000 rpm, until equilibrium was reached. Partial specific volumes were calculated by the residue-weighted average method of Cohn and Edsall (Harding, S. E.; Rowe, A. J.; Harton, J. C. Analytic Ultracentrifugation in Biochemistry and Polymer Science; The Royal Society for Chemistry: Cambridge, 1992). Solution densities were estimated using solute concentration-dependent density tables in the CRC Handbook of Chemistry and Physics. The data were fit as single species to provide an estimate of the aggregation states. Curve fitting of analytical ultracentrifuge data was done using Igor Pro (Wavemetrics Inc., Oswego WS) with procedures adapted from Brooks et al. (Brooks, I. S.; Soneson, K. K.; Hensley, P. Biophys. J. 1993, 64, 244) by Dr. James D. Lear.
Secondary structures of wild type polypeptide Leu-GCN4-p1 and the corresponding artificial polypeptide Tfl-GCN4-p1 were analyzed by circular dichroism (CD). […]

[2] = Guanidine hydrochloride (GuHCl) titration monitored by CD at 222 nm; details: at each temperature examined; 30 μM peptide
Method: The difference in the ability to these molecules to resist denaturation is examined at 30° C. (open symbols) and 50° C. (closed symbols). The ellipticity is monitored at 222 nm and with a peptide concentration of 30 μM. Insert: GuHCl titration midpoint concentration, as defined by the concentration of GuHCl that is needed to denature 50% of the peptides, are plotted as a function of temperature, as described in Examples 5.

[3] = CD thermal unfolding of GCN4-p1 coiled-coil peptides
Method: Circular Dichroism (CD) Analysis. CD spectra were recorded on an Aviv 62DS spectropolarimeter (Lakewood, N.J.) in PBS buffer, pH 7.4. All peptide concentrations were determined by amino acid analysis of a stock solution (5 mg/ml). Experiments were performed in a rectangular cell with pathlength of 1 cm for low concentration samples and pathlength of 1 mm for high concentration samples. Spectra were scanned from 250 nm to 200 nm with data taken every 1 nm. The temperature of the solution was maintained by a thermostatically controlled cuvette holder (HP model 89101A). Temperature scans were performed from 0° C. to 100° C. in 1° C. steps. Three scans were performed on a single sample and averaged. Each data point was collected after 30 seconds of thermal equilibration at the desired temperature. Urea titration scans were performed manually starting with the 8 M concentrated sample followed by serial dilution to the desired urea concentration. At each concentration, the sample was allowed to equilibrate for 5 min before recording the CD signal.
The analysis of CD thermal melting data was performed according to a previously described procedure using a two-state model (Schneider, J. P.; Lear, J. D.; DeGrado, W. F. J. Am. Chem. Soc. 1997, 119, 5742-5743). Temperature-dependent ellipticity data for each protein at different concentrations were fitted globally using a non-linear least-squares fitting procedure supplied with the Origin 6.0 software. For wild-type A1, the concentrations used for curve fitting were 10 and 100 μM, while 2 and 100 μm were used to fit data for the 92% fluorinated A1. The thermodynamic quantities Tm, ΔHm, ΔCp and Kd were parameters of the fitting procedure and are reported in the 1 M standard state. The free energy of folding at any temperature is given by equation 1. ΔG°=ΔHm(1−T/Tm)−ΔCp((Tm−T)+T1n(T/Tm) (1)
The thermal stabilities of the coiled-coil dimers of Leu-GCN4-p1 and Tfl-GCN4-p1 were examined by CD spectroscopy (FIG. 2B). A significant increase in the thermal stability of Tfl-GCN4-p1 as compared to Leu-GCN4-p1 is reflected in an elevation of the thermal denaturation temperature from 48° C. to 61° C. The 13° C. increase in Tm is remarkable in view of the fact that no increase in the thermal stability of GCN4-p1 has been reported based solely on substitution of the leucine residues at the d-positions. […] As expected for a monomer-dimer equilibrium, the denaturation curves depend on the peptide concentrations, and their midpoints shift to higher temperature as the concentrations of peptides are increased (FIG. 2C). The thermodynamic changes associated with the transition (folded dimer to unfolded monomers) is calculated from the melting curves by fitting the data to a monomer-dimer equilibrium (J. P. Schneider, J. D. Lear and W. F. DeGrado, J. Am. Chem. Soc. 119, 5742, 1997). Global analysis of the thermal unfolding curves at two different concentrations, approximately 85 μM and 3 μM, gave a calculated ΔH° of 60.2 kcal mol^−1, Tm of 385.4 K and ΔCp of 530 cal mol^−1 K^−1 for Tfl-GCN4-p1 (1 M standard state); the corresponding values for Leu-GCN4-p1 are 70.3 kcal mol^−1, 365.6 K and 740 cal mol^−1 K^−1 respectively.

[4] = global analysis of thermal unfolding curves, 1 M standard state

Tfl-GCN4-p1: fluorinated GCN4-p1 leucine zipper peptide with trifluoroleucine at the four d-positions
fraction dimeric [1]: approximately 85%
concentration of GuHCl needed to unfold 50% of the peptide, versus wild-type peptide [2]: higher
increase in Tm compared to Leu-GCN4-p1 ([3]; CD spectroscopy): 13 °C
thermal denaturation temperature (Tm) ([3]; CD spectroscopy, coiled-coil dimers): 61 °C
ΔH° ([3]; global analysis of thermal unfolding curves at approximately 85 μM and 3 μM, 1 M standard state): 60.2 kcal/mol
Tm [3, 4]: 112.2 °C
ΔCp [3, 4]: 530 cal mol^−1 K^−1
